In paper PMC11068563, “The MCU and MCUb amino-terminal domains tightly interact: mechanisms for low conductance assembly of the mitochondrial calcium uniporter complex” (iScience, 2024):
One block for each molecule: values may come before it.

Legend:
[1] = molecular target: MCU amino-terminal domain (MCU-NTD), MCU 72-189 (human) (UniProt Q8NE86); assay: SEC-MALS; 100 uL injected at 3.0 mg mL-1 (mixed sample: 3 mg mL-1 each mixed, final 1.5 mg mL-1 of each component); Superdex 200 Increase 10/300 GL; 20 mM Tris (pH 8.5), 150 mM NaCl, 1 mM DTT, 10 C; no divalent cations
[2] = molecular target: MCU amino-terminal domain (MCU-NTD), MCU 72-189 (human) (UniProt Q8NE86); assay: SEC-MALS; 100 uL injected at 3.0 mg mL-1 (mixed sample: final 1.5 mg mL-1 of each component); Superdex 200 Increase 10/300 GL; 20 mM Tris (pH 8.5), 150 mM NaCl, 1 mM DTT, 10 C; with 5 mM CaCl2
[3] = molecular target: MCU amino-terminal domain (MCU-NTD), MCU 72-189 (human) (UniProt Q8NE86); assay: SEC-MALS; 100 uL injected at 3.0 mg mL-1 (mixed sample: final 1.5 mg mL-1 of each component); Superdex 200 Increase 10/300 GL; 20 mM Tris (pH 8.5), 150 mM NaCl, 1 mM DTT, 10 C; with 5 mM MgCl2
[4] = molecular target: MCU amino-terminal domain (MCU-NTD), MCU residues 72-189 (human) (UniProt Q8NE86); assay: cross-linking; 1 mM BS-3, 90 min, 20 mM HEPES (pH 8.4), 150 mM NaCl, 1 mM DTT, ambient temperature; proteins at 67.5 uM, mix with 67.5 uM or 33.8 uM of each; SDS-PAGE, Coomassie
[5] = molecular target: T1, Fluorescein-MCU-NTD (MCU 72-189 labelled with fluorescein-MTS at Cys97) (human, UniProt Q8NE86-1 72-189, fluorescein (fluorescein-methane thiosulfonate) on Cys97); assay: other fluorescence titration; steady-state fluorescein fluorescence; ~0.1 uM fluorescein-MCU-NTD titrated with MCUb-NTD; 20 mM Tris (pH 8.5), 150 mM NaCl, 1 mM DTT, 0.0001% (v/v) NP-40, 5 mM MgCl2; 22.5 C; one-site model; conditions: both partners purified
T1 construct: mitochondrial calcium uniporter (MCU), Homo sapiens, GenBank NP_612366.1, N-terminal domain, residues 72-189; also called MCU-NTD-fluorescein; source: labelled with fluorescein-MTS
T1 sequence (looked up): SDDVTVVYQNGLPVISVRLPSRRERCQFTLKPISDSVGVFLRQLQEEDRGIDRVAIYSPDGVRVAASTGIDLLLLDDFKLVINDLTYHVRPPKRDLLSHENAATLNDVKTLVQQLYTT

[6] = molecular target: T2, MCU amino-terminal domain (MCU-NTD), MCU 72-189 (human, UniProt Q8NE86-1 72-189); assay: SEC-MALS; 100 uL injected at 3.0 mg mL-1 (mixed sample: final 1.5 mg mL-1 of each component); Superdex 200 Increase 10/300 GL; 20 mM Tris (pH 8.5), 150 mM NaCl, 1 mM DTT, 10 C; with 5 mM MgCl2; conditions: both partners purified
T2 construct: mitochondrial calcium uniporter (MCU), Homo sapiens, GenBank NP_612366.1, N-terminal domain, residues 72-189; theoretical monomer mass printed as 13.8637 kDa
T2 sequence (looked up): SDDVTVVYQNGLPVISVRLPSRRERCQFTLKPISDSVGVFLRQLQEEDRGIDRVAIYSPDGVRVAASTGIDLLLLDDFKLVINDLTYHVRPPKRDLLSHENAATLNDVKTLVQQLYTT

[7] = molecular target: T2, MCU amino-terminal domain (MCU-NTD), …; assay: SEC-MALS; 100 uL injected at 3.0 mg mL-1 (mixed sample: final 1.5 mg mL-1 of each component); Superdex 200 Increase 10/300 GL; 20 mM Tris (pH 8.5), 150 mM NaCl, 1 mM DTT, 10 C; with 5 mM CaCl2; conditions: both partners purified
[8] = molecular target: T2, MCU amino-terminal domain (MCU-NTD), …; assay: SEC-MALS; 100 uL injected at 3.0 mg mL-1 (mixed sample: 3 mg mL-1 each mixed, final 1.5 mg mL-1 of each component); Superdex 200 Increase 10/300 GL; 20 mM Tris (pH 8.5), 150 mM NaCl, 1 mM DTT, 10 C; no divalent cations; conditions: both partners purified
[9] = molecular target: MCUb amino-terminal domain (MCUb-NTD), MCUb 58-159 (human) (UniProt Q9NWR8); assay: SEC-MALS; 100 uL injected at 4.0 mg mL-1; Superdex 200 Increase 10/300 GL; 20 mM Tris (pH 8.5), 150 mM NaCl, 1 mM DTT, 10 C; no divalent cations
[10] = molecular target: MCUb amino-terminal domain (MCUb-NTD), MCUb 58-159 (human) (UniProt Q9NWR8); assay: SEC-MALS; 100 uL injected at 3.0 mg mL-1 (mixed sample: 3 mg mL-1 each mixed, final 1.5 mg mL-1 of each component); Superdex 200 Increase 10/300 GL; 20 mM Tris (pH 8.5), 150 mM NaCl, 1 mM DTT, 10 C; no divalent cations
[11] = molecular target: MCUb amino-terminal domain (MCUb-NTD), MCUb 58-159 (human) (UniProt Q9NWR8); assay: SEC-MALS; 100 uL injected at 3.0 mg mL-1 (mixed sample: final 1.5 mg mL-1 of each component); Superdex 200 Increase 10/300 GL; 20 mM Tris (pH 8.5), 150 mM NaCl, 1 mM DTT, 10 C; with 5 mM CaCl2
[12] = molecular target: MCUb amino-terminal domain (MCUb-NTD), MCUb 58-159 (human) (UniProt Q9NWR8); assay: SEC-MALS; 100 uL injected at 3.0 mg mL-1 (mixed sample: final 1.5 mg mL-1 of each component); Superdex 200 Increase 10/300 GL; 20 mM Tris (pH 8.5), 150 mM NaCl, 1 mM DTT, 10 C; with 5 mM MgCl2
[13] = molecular target: T1, Fluorescein-MCU-NTD (MCU 72-189 …); assay: other fluorescence titration; steady-state fluorescein fluorescence; ~0.1 uM fluorescein-MCU-NTD titrated with MCUb-NTD; 20 mM Tris (pH 8.5), 150 mM NaCl, 1 mM DTT, 0.0001% (v/v) NP-40, 5 mM CaCl2; 22.5 C; one-site model; conditions: both partners purified
[14] = molecular target: MCUb amino-terminal domain (MCUb-NTD), MCUb 58-159 (human) (UniProt Q9NWR8); assay: SEC-MALS; 100 uL injected at 2.0 mg mL-1; Superdex 200 Increase 10/300 GL; 20 mM Tris (pH 8.5), 150 mM NaCl, 1 mM DTT, 10 C; no divalent cations
[15] = molecular target: T3, MCU-NTD-D147R, MCU 72-189 D147R (human, UniProt Q8NE86-1 72-189, D147R); assay: other fluorescence titration; steady-state fluorescein fluorescence; ~0.1 uM fluorescein-MCUb-NTD titrated with unlabelled MCU-NTD variant; 20 mM Tris (pH 8.5), 150 mM NaCl, 1 mM DTT, 0.0001% (v/v) NP-40; 22.5 C; one-site model; conditions: both partners purified
T3 construct: mitochondrial calcium uniporter (MCU), Homo sapiens, GenBank NP_612366.1, N-terminal domain, residues 72-189, with D147R
T3 sequence (looked up): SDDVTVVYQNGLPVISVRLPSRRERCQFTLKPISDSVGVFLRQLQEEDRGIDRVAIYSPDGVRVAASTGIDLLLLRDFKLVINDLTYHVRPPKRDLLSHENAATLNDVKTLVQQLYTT

- stoichiometry N [1]: 0.98
- stoichiometry N [2]: 0.96
- stoichiometry N [3]: 1.05
Molecule: MCU amino-terminal domain (MCU-NTD), MCU 72-189 (from UniProt Q8NE86-1 72-189) (domain or fragment)

- stoichiometry N [4]: 2
Molecule: MCU amino-terminal domain (MCU-NTD), MCU residues 72-189 (from UniProt Q8NE86-1 72-189) (domain or fragment)

- Kd [5]: 160 nM
- stoichiometry N [6]: 1.61
- stoichiometry N [7]: 1.72
- stoichiometry N [8]: 1.68
- stoichiometry N [9]: 1.02
- stoichiometry N [10]: 0.97
- stoichiometry N [11]: 0.92
- stoichiometry N [12]: 0.92
- Kd [13]: 90 nM
- stoichiometry N [14]: 0.95
B1: MCUb amino-terminal domain (MCUb-NTD), MCUb 58-159 (domain or fragment, human, UniProt Q9NWR8 58-159, looked up)
chain: DEITVIYRHGLPLVTLTLPSRKERCQFVVKPMLSTVGSFLQDLQNEDKGIKTAAIFTADGNMISASTLMDILLMNDFKLVINKIAYDVQCPKREKPSNEHTA
notes: MCU dominant negative beta subunit (MCUb), Homo sapiens, GenBank NP_060388.2, N-terminal domain, residues 58-159; Theoretical monomer mass printed as 12.0098 kDa; a few vector residues probably remain after thrombin cleavage (pET-28a, NheI/XhoI); source: E. coli BL21(DE3) codon plus, purified (Ni-NTA, thrombin, SEC); not shown: 6xHis, N-terminal, cleaved

- Kd [15]: 250 nM
B2: Fluorescein-MCUb-NTD (MCUb 58-159 labelled with fluorescein-MTS at Cys82 and Cys147) (domain or fragment, human, UniProt Q9NWR8 58-159, looked up)
chain: DEITVIYRHGLPLVTLTLPSRKERCQFVVKPMLSTVGSFLQDLQNEDKGIKTAAIFTADGNMISASTLMDILLMNDFKLVINKIAYDVQCPKREKPSNEHTA
modifications: fluorescein (fluorescein-methane thiosulfonate) on Cys82 and Cys147
notes: MCU dominant negative beta subunit (MCUb), Homo sapiens, GenBank NP_060388.2, N-terminal domain, residues 58-159; also called MCUb-NTD-fluorescein; source: E. coli BL21(DE3) codon plus, purified (Ni-NTA, thrombin, SEC); labelled with fluorescein-MTS; not shown: 6xHis, N-terminal, cleaved
